In the assay the target is rat cardiac SR Ca2+ ATPase (SERCA2a), endogenous in rat cardiomyocytes (rat, UniProt P11507 1-1043). Description: cell-based or functional assay.
Chain of rat cardiac SR Ca2+ ATPase (SERCA2a), endogenous in rat cardiomyocytes (P11507 whole entry): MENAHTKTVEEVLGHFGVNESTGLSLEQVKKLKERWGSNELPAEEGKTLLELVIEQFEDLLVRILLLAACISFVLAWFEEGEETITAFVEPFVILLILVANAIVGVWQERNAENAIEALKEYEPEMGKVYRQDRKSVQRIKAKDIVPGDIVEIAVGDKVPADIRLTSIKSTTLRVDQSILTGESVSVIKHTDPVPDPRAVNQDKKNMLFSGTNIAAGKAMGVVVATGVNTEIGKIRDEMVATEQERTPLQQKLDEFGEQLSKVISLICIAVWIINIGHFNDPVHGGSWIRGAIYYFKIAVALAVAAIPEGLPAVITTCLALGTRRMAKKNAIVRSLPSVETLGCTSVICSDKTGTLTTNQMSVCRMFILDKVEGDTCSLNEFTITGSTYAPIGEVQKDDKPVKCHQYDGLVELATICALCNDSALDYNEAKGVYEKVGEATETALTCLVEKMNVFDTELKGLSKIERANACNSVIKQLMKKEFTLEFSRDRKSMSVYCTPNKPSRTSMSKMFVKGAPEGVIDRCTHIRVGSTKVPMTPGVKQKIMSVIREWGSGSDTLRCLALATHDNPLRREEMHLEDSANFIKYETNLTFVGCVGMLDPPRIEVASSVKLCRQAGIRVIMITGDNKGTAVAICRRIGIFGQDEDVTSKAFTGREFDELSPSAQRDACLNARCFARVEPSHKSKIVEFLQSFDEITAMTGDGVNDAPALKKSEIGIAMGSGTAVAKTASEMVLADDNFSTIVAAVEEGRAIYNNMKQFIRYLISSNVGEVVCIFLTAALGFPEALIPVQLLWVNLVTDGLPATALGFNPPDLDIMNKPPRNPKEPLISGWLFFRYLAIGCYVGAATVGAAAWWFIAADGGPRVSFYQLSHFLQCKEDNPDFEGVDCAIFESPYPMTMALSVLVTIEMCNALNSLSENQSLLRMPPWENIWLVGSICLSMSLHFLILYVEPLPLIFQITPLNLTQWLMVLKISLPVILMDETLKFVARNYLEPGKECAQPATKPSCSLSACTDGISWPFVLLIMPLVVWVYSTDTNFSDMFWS

B1: K3E/R14E double point mutation of PLB (other)
chain: MEEVQYLTRSAIREASTIEMPQQARQKLQNLFINFCLILICLLLICIIVMLL
Consider B1, for which the “EC50 of Ca2+ concentration at which the SR Ca2+ uptake activity is half-maximal (neonatal rat myocytes)” value turned out to be 110 nM and the “lowering of the EC50 of Ca2+ for SR Ca2+ uptake (adult rat myocytes)” value worked out at 36%.

The record behind these values is patent publication EP1126866B1 (The Regents of the University of California, dated 2007).
